Experimental data: JP2019147786A (dated 2019)
Each block holds one binder with its values, some of them ahead of it.

Assays:
[1] = biological target: T1, 可溶性ヒトgp130受容体 (soluble human gp130 receptor, extracellular region with six histidines, made in CHO DG44 cells) (human, UniProt P40189 23-619); assay: ELISA, soluble gp130 coated on the plate, hybridoma supernatant, anti-mouse HRP
T1 construct: The stated range 1-619 begins at Met 1 and so holds the native signal peptide; also called 可溶性ヒトgp130受容体タンパク質; ヒトgp130受容体
T1 sequence: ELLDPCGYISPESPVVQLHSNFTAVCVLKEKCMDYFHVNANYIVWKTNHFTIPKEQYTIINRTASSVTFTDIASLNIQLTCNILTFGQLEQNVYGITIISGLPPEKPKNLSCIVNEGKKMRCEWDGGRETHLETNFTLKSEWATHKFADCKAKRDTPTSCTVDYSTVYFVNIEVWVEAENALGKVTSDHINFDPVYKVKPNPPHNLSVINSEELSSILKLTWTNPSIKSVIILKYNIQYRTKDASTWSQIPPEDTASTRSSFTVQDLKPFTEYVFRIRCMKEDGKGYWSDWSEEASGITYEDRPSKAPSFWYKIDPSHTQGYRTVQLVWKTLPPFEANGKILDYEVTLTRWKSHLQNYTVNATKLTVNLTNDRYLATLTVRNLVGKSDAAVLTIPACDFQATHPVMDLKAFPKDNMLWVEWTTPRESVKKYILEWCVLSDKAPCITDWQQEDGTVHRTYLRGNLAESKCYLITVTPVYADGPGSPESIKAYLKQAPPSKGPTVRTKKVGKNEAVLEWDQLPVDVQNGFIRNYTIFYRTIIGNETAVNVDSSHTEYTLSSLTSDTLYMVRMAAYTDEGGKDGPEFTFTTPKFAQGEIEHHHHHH

[2] = biological target: T1, 可溶性ヒトgp130受容体 (soluble human gp130 …); assay: SPR (Biacore T200), gp130 amine-coupled on CM5 (352 RU), Fab as analyte, 25 C
[3] = biological target: T1, 可溶性ヒトgp130受容体 (soluble human gp130 …); assay: SPR (Biacore T200), gp130 amine-coupled on CM5 (235.2 RU), Fab as analyte
[4] = biological target: T1, 可溶性ヒトgp130受容体 (soluble human gp130 …); assay: SPR (Biacore T200), gp130 amine-coupled on CM5 (376 RU), full-length IgG as analyte

B1: 抗体A (mouse anti-human gp130 receptor monoclonal antibody from hybridoma) (antibody, mouse IgG1, kappa, V domains shown)
VH: EVLLQQSGPELVKPGASVKIPCKASGYTFTDYNMDWVKQSHGKSLEWIGDINSHSGGIIYNQKFKDKAILTVDKSSSTAYMELRSLTSEDTAVYYCARTYYVYGHFFDYWGQGTTLTVSS
VL: QSVLTQSPAFISASPGEKVTMTCNVSSSVTSMYWYQQKPGSSPKPWIYLTSNLASGVPPRFSGSGSGTSYSLTISSLEAEDAATYYCQQWSTNPLTFGAGTKLELKR
notes: also called マウス抗体A; antibody A
binding result [1]: binds

B3: 小型化マウス抗体A (Fab of mouse antibody A, from pUC-Fab-mAHmAL, E. coli) (Fab, V domains shown)
VH: B1 VH
VL: B1 VL
Kd [2]: 0.598 nM | koff [2]: 8.42e-05 s⁻¹ | kon [2]: 141000 M⁻¹ s⁻¹

B4: hAH1hAL1 (humanized Fab, VH SEQ ID NO 25, VL SEQ ID NO 76, from pUC-Fab-hAH1hAL1) (Fab, V domains shown)
VH: QVQLQQPGAELVQPGTSVRLSCKASGYTFTDYNMDWVKQRPGQGLEWIGDINSHSGGIIYNQKFKDKATLTVDKSSSTAYMQLSSLTSEDSAVYYCARTYYVYGHFFDYWGQGTLVTVSA
VL: DIQMTQSPSSLSASVGDRVTITCNVSSSVTSMYWYQQKQGKSPQLLVYLTSNLASGVPARFSGSGSGTEFTLTISSLQPDDFATYYCQQWSTNPLTFGAGTKLDLKR
Kd [3]: 0.218 nM | koff [3]: 5.6e-05 s⁻¹ | kon [3]: 257000 M⁻¹ s⁻¹

Now from value to binder:

Kd [2]: 0.46 nM | koff [2]: 8.21e-05 s⁻¹ | kon [2]: 178000 M⁻¹ s⁻¹
B2: hAH1mAL (Fab: humanized VH hAH1 with the mouse L chain of antibody A, from pUC-Fab-hAH1mAL) (Fab, V domains shown)
VH: B4 VH
VL: B1 VL

Kd [3]: 0.594 nM | koff [3]: 7.05e-05 s⁻¹ | kon [3]: 119000 M⁻¹ s⁻¹
B5: hAH1hAL2 (humanized Fab, VH SEQ ID NO 25, VL SEQ ID NO 77, from pUC-Fab-hAH1hAL2) (Fab, V domains shown)
VH: B4 VH
VL: ELVLTQSPGTLSLSAGERATLSCNVSSSVTSMYWYQQKPGKAPKLLIYLTSNLASGVPSRFSGSGSGTQFSLKINNLQPEDFGSYYCQQWSTNPLTFGAGTKLDLKR

Kd [4]: 0.585 nM | koff [4]: 7.25e-05 s⁻¹ | kon [4]: 124000 M⁻¹ s⁻¹
B6: hAH1hAL3 (full-length humanized anti-gp130 receptor antibody, H chain hAH1, L chain hAL3, made in CHO DG44 cells) (antibody, human IgG1, kappa, V domains shown)
VH: B4 VH
VL: DIQMTQSPSSLSASVGDRVTITCNVSSSVTSMYWFQQRPGQAPKVLIYLTSNLASGVPSRFSGSGSGTEFTLTISSLQPDDFATYYCQQWSTNPLTFGQGTKVEIKR
notes: Human IgG1, kappa constant regions; also called ヒト化抗体hAH1hAL3
